In the data set the test system is H-NS (Escherichia coli). Put plainly: EMSA. The note with it: apparent Kd; 200 pM DNA; EMSA: H-NS 0-500 nM, 200 pM 32P-labelled DNA, 4% polyacrylamide gel run at 4 C; buffer, salt and pH not stated (as in ref 99). On the technique in general: Mobility shift assays separate free from complexed probe on a gel.

Our source for the Kd values is PMC4713147.

On to GC rich region of pBR322, for which the Kd is 200 nM.

Take bglG DRE (bglB primer pair): the Kd is 10 nM.
